Source: the nanobody polyreactivity screen of Harvey et al. (2022)

Assay: yeast display, Sf9 membrane polyspecificity reagent, FACS + sequencing; frameworks hold sequencing errors
Outline: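 Genes from sorted yeast were amplified by colony PCR, read by MiSeq 2 × 250 sequencing and filtered on CDR length. These cells carried a synthetic nanobody library in Saccharomyces cerevisiae BJ5465 and were sorted by FACS into low and high (top ~1%) gates on anti-HA and streptavidin fluorescence. Polyreactivity is labelled according to the gate of origin.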

Sequence | polyreactivity (PSR sort gate)
QVQLVESGGGLVQAGGSLRLSCADSGRHFSFNMGWYRQAPGKERELVAAISRRGGSTYYADSVKGRFTISRDNAKNTVYLQMNSLKPEYTAVYYCAVIPRQTYSGGGYDYWGQGTQVTVSS | high polyreactivity
QVQLVESGGGLVQAGGSLRLSCAASGSIFGYYAMGWYRQAPGKERELVASITRSGDTTYYADSVKGRFTISRDNAKNTVYLQMNSLKPEDTAVYYCAARRWRWYYDGFVRMDYWGQGTQVTVSS | high polyreactivity
QVQLVESGGGLVQAGGSLRLSCAASGRIFGVYGMGWYRQAPGKERELVAAITISGRTNYADSVKGRFTISRDNAKNTVYLQMNSLKPEDTAVYYCAAEKRKLFQGVARYRYEYWGQGTQVTVSS | low polyreactivity
QEQLVESGGGLVQAGGSLRLSCAPSGSIMYVYAMGWYRPAPGKERELVAVITSGGSTTYADSVKGRFTMSRDNAKNTVYLQMNSLKPEDTAVYYCAAVPYSVYGGDYWGQGTQVTVSS | low polyreactivity
QVQLVESGGGLVQAGGSLRLSCAASGRIFYFYVMGWYRQAPGKEREFVAAISQSGGSTYYADSVKGRFTISRDNAKNTVYLQMNSLKPEDTAVYYCAADLKAWGRYYYWGQGTQVTVSS | low polyreactivity
QVQLVESGGGLVQAGGSLRLSCAASGRTFTGYAMGWYRQAPGKERELVASISGSGGRTNYADSVKGRFTISRDNAKNTVYLQMNSLKPEDTAVYYCAARYRTWFGYWGQGTQVTVSS | high polyreactivity
QVQLVESGGALVQAGGSLRLSCAASGRTFGLTAMGWYRQAPGKERELVAAITWSDDDTYYADSVKARFTNSRDNAKNTVYLQMNSLKPEDTAVYYCAATYPYRQYDYWGQGTQVTVSS | low polyreactivity
QVQLGESGGGLVQAGGSLRLSCAASGSIFGLYAMGWYRQAPGKERELVATITSGSSTTYADSVKGRFTISRDNAKNTVYLQMNSLKPEVTAVYYCGVDDLYGFDYWGQGTQVTVSS | low polyreactivity
QVQLVESGGGLVQAGGSLRLICAASGSTFAYNTMGWYRPAPGKERELVAAISWRGTRTYYADSVKGRFTISRDNAKNTVYLQMNSLKPEDTAVYYCATKYGISYDYWGLGTQVTVSS | high polyreactivity
QVHLVESGGGLVQSGGSLRLSCAASGTIFEANVKGWYRQAPGKERELVATISSDGTSTYYADSVKGRFTISRDNAKYTVYLQMNSRKPEDTAVYYCNADAGAGWYPDSKYAYDYWGQGTLVTVSS | low polyreactivity
QVQHVESGGGLVQAGGRLRLSCAASGGIYYYAMGWYRQAPGKERELVAAISSGGGNTNYADSVKGRFTISRDNAKNTVYLQMNSLKPEDTAVYYCATDGFIPTYSYTEIGYDYWGQGTQVTVSS | low polyreactivity
QVQLVESGRGLVQAGGSLRLSCAASGRTFYLYAMVWNIQAPGKERELVAAITFNGGSTYYADSVKGRFTISRDNAKNTVYLQMNSLKPEDTAVYYCAARLSKRSGYYYWGQVTQVTVSS | high polyreactivity
QVQLVESGGGLVQAGGSLRLSCAASGRIFKTNAMGWYRQAPGKERELVAAISRSGSRTSYADSVKGRFTISRDNAKNTVYLQMNSLKPEDTAVYYCATRGLYWKVGYWGQGTQVTVSS | high polyreactivity
QVQLVESGGGLVQAGGSLRLSCAASGFTFRYYAMVWYRQAPGKERELVAAISYSGGSTYYADSVKGRFTISRDNAKNTVYLQMNCLKPEDTAVYYCAAYYPYSREMGYWGQGTQVTVSS | high polyreactivity
QVQLVESVGGLVQAGGSLRLSCAASGSIFITYAMGWYRQAPGKVRELVAAIRDSGDRTYYADSVKGRFTISRDNAKNTVYLQMNSLKPEDTAVYYCNARWQEPLKYDYWGQGTQVTVSS | low polyreactivity
QVQLVESGGGLVQAGGSLRLSCAASGRTFYFYAMGWYRQAPGKERELVAAITVRGGSTYYADSVKGRFTISRYNAKNTVYLQMNSLKPEDTAVYYCAADPYPYYGAYDYWGQGTQVTVSS | high polyreactivity
QVQLVESGGGLVQAGGSLRLSCAASGRIFDGNAMGWYRQAPGKERELVATITRGGRTNYADSVKGRFTISRDNAKNTVYLQMNSLKPEDTAVYYCAAEYTYYTYNLNYWGQGTQVTVSS | low polyreactivity
